We go through 18 molecules from patent US20260242478A1 (published 2026).

In assay [1] the target is Anti-CD28 Fab (SEQ ID NOs: 696, 697). In words: phage binding ELISA; Fab-coated wells pre-incubated with saturating CD28 antigen as competitor, anti-M13 HRP detection.
Target sequence in this assay (VH, as listed by the source, chain 1 of 2): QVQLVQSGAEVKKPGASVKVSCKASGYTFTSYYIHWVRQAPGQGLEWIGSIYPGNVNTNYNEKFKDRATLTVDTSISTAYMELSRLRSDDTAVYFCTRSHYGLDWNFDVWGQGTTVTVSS
Target sequence in this assay (VL, as listed by the source, chain 2 of 2): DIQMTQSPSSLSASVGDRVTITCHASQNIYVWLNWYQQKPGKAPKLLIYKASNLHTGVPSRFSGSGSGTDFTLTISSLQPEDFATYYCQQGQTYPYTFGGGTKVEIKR
Procedure: (§1) Clonal phage were harvested as crude supematants and screened via standard ELISAs. […] Prior to the addition of clonal phage, wells were incubated with blocking buffer and CD28 antigen or blocking buffer alone. Without washing or aspirating, clonal phage supematants were then added to the wells and incubated for a short time. Wells were then washed followed by detection of bound phage using a horse radish conjugated anti-M13 antibody.
Assay [2] shares this target. In words: phage binding ELISA; biotinylated anti-CD28 Fab on neutravidin plate, clonal phage supernatant, anti-M13 HRP detection.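 Note: wells pretreated with blocking buffer, either plus or minus CD28 antigen, then given crude phage supernatant briefly without washing in between, then washed before anti-M13 HRP readout.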
Target sequence in this assay (VH, as listed by the source, chain 1 of 2): as the sequence (VH, as listed by the source, chain 1 of 2) above
Target sequence in this assay (VL, as listed by the source, chain 2 of 2): as the sequence (VL, as listed by the source, chain 2 of 2) above
Procedure: as §1
In assay [3] the target is T1, Anti-CD28 Fab (SEQ ID NOs: 696, 697).
T1 construct: Biotinylated and captured on neutravidin coated plates in the phage ELISA
In words: phage binding ELISA; biotinylated anti-CD28 Fab on neutravidin plate, bound phage detected with anti-M13-HRP.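 Note: clonal phage tested as crude supernatants, given a short incubation in the Fab-captured wells before bound phage were read.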
T1 sequence (VH, as listed by the source, chain 1 of 2): as the sequence (VH, as listed by the source, chain 1 of 2) above
T1 sequence (VL, as listed by the source, chain 2 of 2): as the sequence (VL, as listed by the source, chain 2 of 2) above
Procedure: (§2) Clonal phage were harvested as crude supematants and screened via standard ELISAs. […] Prior to the addition of clonal phage, wells were incubated with blocking buffer and CD28 antigen or blocking buffer alone. Without washing or aspirating, clonal phage supematants were then added to the wells and incubated for a short time. Wells were then washed followed by detection of bound phage using a horse radish conjugated anti-M13 antibody. Clonal phage of interest were then sent for sequence analysis.

Assay [4] has the same target. In words: phage binding ELISA on captured anti-CD28 Fab; competitor: CD28 antigen pre-incubated in the well.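 Note: clonal phage supernatants added briefly to wells preblocked with or without CD28, bound phage detected through an HRP-linked anti-M13 antibody, wells with blocking buffer alone as comparison.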
Target sequence in this assay (VH, as listed by the source, chain 1 of 2): as the sequence (VH, as listed by the source, chain 1 of 2) above
Target sequence in this assay (VL, as listed by the source, chain 2 of 2): as the sequence (VL, as listed by the source, chain 2 of 2) above
Procedure: as §2

Regarding TCSAGAHYPWPICL (also called Peptide-92 library clone) [Phage-1578], the “Anti-CD28 Fab signal in the presence of CD28” value (from here on “Anti-CD28 Fab signal”) in assay [1] was found to be 0.08. Also, in assay [2], the “Anti-CD28 Fab (SEQ ID NOs: 696, 697) signal” value was 1.41.
As to LCSAGAMWQWPTCL (tested as crude phage supernatant) [Phage-1544], in assay [3], the “Anti-CD28 Fab (SEQ ID NOs: 696, 697) signal” value is 1.51. Also, in assay [4], the “Anti-CD28 Fab signal” value is 0.05.
The like results for TCEAVFIYSWPFCL (tested as crude phage supernatant) [Phage-1543] were, in that order, 1.52 and 0.08.
For TCAAGAQFAWPLCL (also called Peptide-92 library clone) [Phage-1579], the “Anti-CD28 Fab signal” value in assay [1] is 0.07. Further, the “Anti-CD28 Fab (SEQ ID NOs: 696, 697) signal” value in assay [2] was found to be 1.41.
As to RCSFRFITLAEACV (also called Peptide-92 library clone) [Phage-1577], the “Anti-CD28 Fab signal” value in assay [1] was determined as 0.08. Further, the “Anti-CD28 Fab (SEQ ID NOs: 696, 697) signal” value in assay [2] came out at 1.41.
On to RCAAGFHYSWPNCF (also called Peptide-92 library clone) [Phage-1581], for which the “Anti-CD28 Fab signal” value in assay [1] turned out to be 0.06. In addition, the “Anti-CD28 Fab (SEQ ID NOs: 696, 697) signal” value in assay [2] was 1.41.
For PCAAGAMWPWPVCL (also called Peptide-92 library clone) [Phage-1583], the “Anti-CD28 Fab signal” value in assay [1] stood at 0.06. Also, in assay [2], the “Anti-CD28 Fab (SEQ ID NOs: 696, 697) signal” value came to 1.41.
Regarding QCAAGAMWTWPACF (tested as crude phage supernatant) [Phage-1537], the “Anti-CD28 Fab (SEQ ID NOs: 696, 697) signal” value in assay [3] was 1.54. In addition, the “Anti-CD28 Fab signal” value in assay [4] came out at 0.06.
Taken in the same sequence, the figures for SCSAGAMYPWPMCL (tested as crude phage supernatant) [Phage-1540] were 1.53 and 0.06.
As for TCAAGAAWEWPICF (tested as crude phage supernatant) [Phage-1538], the “Anti-CD28 Fab (SEQ ID NOs: 696, 697) signal” value in assay [3] was 1.54. The “Anti-CD28 Fab signal” value in assay [4] is 0.06.
As for GCAAGASYPWPACL (also called Peptide-92 library clone) [Phage-1582], the “Anti-CD28 Fab signal” value in assay [1] amounted to 0.06. For the same molecule, the “Anti-CD28 Fab (SEQ ID NOs: 696, 697) signal” value in assay [2] was 1.41.
The like results for LCSAGFLFQWSTCL (also called Peptide-92 library clone) [Phage-1580] were, in that order, 0.06 and 1.41.
On to TCSAGATYVWPDCF (tested as crude phage supernatant) [Phage-1542], for which the “Anti-CD28 Fab (SEQ ID NOs: 696, 697) signal” value in assay [3] was determined as 1.52. The “Anti-CD28 Fab signal” value in assay [4] came to 0.09.
As to TCAAGATWDWPLCF (tested as crude phage supernatant) [Phage-1546], the “Anti-CD28 Fab (SEQ ID NOs: 696, 697) signal” value in assay [3] came to 1.51. Further, the “Anti-CD28 Fab signal” value in assay [4] is 0.06.
Taken in the same sequence, the figures for TCAAGASWEWPLCF (tested as crude phage supernatant) [Phage-1541] were 1.52 and 0.08.
As to TCAAGAMWNWPQCY (tested as crude phage supernatant) [Phage-1539], the “Anti-CD28 Fab (SEQ ID NOs: 696, 697) signal” value in assay [3] is 1.54. The “Anti-CD28 Fab signal” value in assay [4] came out at 0.07.
As to SCSAGASLQLSQCF (also called Peptide-92 library clone) [Phage-1576], in assay [1], the “Anti-CD28 Fab signal” value is 0.05. The “Anti-CD28 Fab (SEQ ID NOs: 696, 697) signal” value in assay [2] worked out at 1.41.
Take LCAEGADYPWPMCL (tested as crude phage supernatant) [Phage-1545]: the “Anti-CD28 Fab (SEQ ID NOs: 696, 697) signal” value in assay [3] came to 1.51. Also, in assay [4], the “Anti-CD28 Fab signal” value was 0.08.
